The record followed here is patent US7176008 (MERCK, dated 2007).

In test [1] the target is T1, activated thrombin-activatable fibrinolysis inhibitor (human TAFIa) (human, UniProt Q96IY4 115-423).
T1 construct: Purified from human serum in the presence of 5 mM epsilon-aminocaproic acid; also called carboxypeptidase U
T1 sequence (looked up): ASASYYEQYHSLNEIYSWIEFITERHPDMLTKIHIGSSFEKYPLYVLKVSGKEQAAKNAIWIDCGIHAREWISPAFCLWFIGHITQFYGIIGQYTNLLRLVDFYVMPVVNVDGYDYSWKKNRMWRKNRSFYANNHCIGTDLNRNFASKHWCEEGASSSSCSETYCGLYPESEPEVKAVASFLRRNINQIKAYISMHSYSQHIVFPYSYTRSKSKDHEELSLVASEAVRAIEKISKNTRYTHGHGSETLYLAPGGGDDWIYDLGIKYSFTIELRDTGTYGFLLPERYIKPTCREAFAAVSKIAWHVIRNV

In a further test the target is T2, human carboxypeptidase B (human, UniProt P15086 111-417).
T2 construct: also called CPB
T2 sequence (looked up): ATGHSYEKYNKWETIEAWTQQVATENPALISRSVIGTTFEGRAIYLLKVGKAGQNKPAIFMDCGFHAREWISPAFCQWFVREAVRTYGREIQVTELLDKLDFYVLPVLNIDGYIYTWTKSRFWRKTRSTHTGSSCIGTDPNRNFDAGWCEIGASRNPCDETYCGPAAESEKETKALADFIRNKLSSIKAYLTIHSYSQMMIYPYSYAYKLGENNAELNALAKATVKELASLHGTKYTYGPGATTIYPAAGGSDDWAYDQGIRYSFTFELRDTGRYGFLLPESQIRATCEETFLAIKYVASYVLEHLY

With QQHADPICNKPCKTHDDCSGAWFCQACWNSARTCGPYVG (peptide, UniProt P01075 1-39, looked up, also called PCI) [potato carboxypeptidase inhibitor], the binding result (in test [1]; in the test with human carboxypeptidase B) was “binds” in each case.
